# In patent US12312397B2, “Anti-O2 antibodies and uses thereof” (priority 2016, dated 2025):
# B1: KPN179: Class III anti-O2 antigen human mAb; VH SEQ ID NO: 53, VL SEQ ID NO: 54 (antibody, V domains shown)
# VH: EVQVVESGGGLVKPGGSLRLSCAASGFTFNNAWMNWVRQAPGKGLEWVGRIKRKADGETTDYPASVKGRFTVSRDDSKNTIYLQMNSLKTEDTAIYYCTTRIVTTNDYWGQGTLVTVSS
# VL: QSALTQPPSVSGSPGQSVTISCTGTSSDVGYYDYVSWYQQHHPGKAPKHMIYDVNKRPSGVPDRFSGSKSGNTASLTISGLQAEDEADYYCCSYAGGDTFVFGTGTKVTVL
# modifications: Description of Artificial Sequence: SyntheticKPN179 VH polypeptide; Description of Artificial Sequence: SyntheticKPN179 VL polypeptide
# Legend:
# O1 LPS = experiment: ELISA binding to O1 LPS; design: species or system Klebsiella pneumoniae; conditions: secondary screening
# Outline: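 Serial dilutions of monoclonal antibodies bound to LPS-coated plates for 1 h at room temperature, detected with alkaline phosphatase-conjugated anti-human IgG (1 h) and pNPP substrate (30 min). Absorbance read at 405 nm; EC50 values derived from binding curves.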
# O2 LPS = experiment: Octet binding assay, O2 LPS; design: species or system Klebsiella pneumoniae; conditions: average; calculated from on-rate and off-rate of Octet sensorgram; read-out: affinity constant (KD) to O2 LPS
# Procedure: The interaction of anti-O2 LPS mAbs with O1 and O2 LPS was further tested in solution phase by Octet platform. This platform provides a powerful tool to measure the rate of biomolecular complex formation and complex stability in a more biologically meaningful setting. Briefly, Protein A coated sensors were coated with 0.2 μg/mL anti-O2 LPS mAbs for 10 minutes before being dipped into solution containing 2 μg/mL O1 or O2 LPS in Kinetics buffer (ForteBio, dilute 10× to 1× with PBS). Changes in the number of molecules bound to the biosensor caused a shift in the interference pattern that was recorded in real time. […] The affinity constant (KD) of Class III mAbs to O2 LPS was calculated based on the on-rate and off-rate from Octet sensorgram.
# KPC strain Kp977778_O2 = experiment: Lethal pneumonia model, KPC strain Kp977778_O2; format: in vivo, Klebsiella pneumoniae; conditions: C57/BL6 mice, 3e8 CFU; mAb 2 mg/kg 1 hour post infection; survival
# Procedure: (§1) C57/BL6 mice were obtained from Jackson Laboratories and maintained in a special pathogen-free facility. All animal experiments were conducted in accordance with Institutional Animal Care and Use Committee (IACUC) protocol and guidance. K. pneumoniae strains were grown on agar plates overnight and diluted in saline at proper concentration. The inoculum titer was determined by plating a serial dilution of bacteria onto agar plates prior to and post challenge. In acute pneumonia models, C57/BL6 mice were inoculated with 1e4 to 2e8 colony-forming units (CFU) of K. pneumoniae clinical isolates in 50 μl saline intranasally. Anti-K pneumoniae monoclonal antibodies (mAbs) and human IgG1 control antibodies were given 1-24 hour post bacterial challenge (therapeutic dosing). Mouse survival was monitored daily until up to day 8. Survival data of representative experiments were plotted in Graphpad Prism software.
# (§2) Mice were challenged with 2e8 CFU of Klebsiella pneumoniae Carbanpenemase (KPC) strain Kp961842_O2 or with 3e8 CFU of KPC strain Kp977778_O2, followed by the administration of anti-O2 mAbs. When administered at a concentration of 2 mg/kg 1 hour post bacterial infection, Class III anti-O2 LPS mAbs KPN42, KPN179-IgG1, and KPS44v2017 protected mice from lethal bacterial challenge with the multi-drug resistant KPC strains Kp961842_O2 (FIG. 6, left panel, and FIG. 10) and Kp977778_O2 (FIG. 6B, right panel).
# K. pneumoniae O2 = experiment: Mouse protection models (O2), Table 7 summary; format: in vivo, Klebsiella pneumoniae; design: key: +++: Strongly positive activity; +: Positive activity; +/−: Somewhat positive depending upon the test conditions; conditions: mouse pneumonia models
# Procedure: As described in more detail in below, anti-O2 LPS mAbs were tested for: 1) binding to O1 and O2 LPS (see Example 5); 2) LPS neutralization (LPS-Neut) against O1 and O2 LPS (see Example 7); 3) OPK against capsule mutant strain 43816ΔcpsB lux (O1) and 8570ΔcpsB lux (O2) (see Example 8); and 4) protective activity in pneumonia models (see Example 9). O2 LPS mAbs were subsequently divided into three classes based on their in vitro activities. Class I mAbs were characterized as Binding (O1+O2+)/OPK (O1−O2+); Class 2 mAbs were characterized as Binding (O1+O2+)/OPK (O1+O2+); and Class III mAbs were characterized as Binding (O1±O2+)/OPK (O1−O2+).
# as §1, §2
# KPC strain Kp961842_O2 = experiment: Lethal pneumonia model, KPC strain Kp961842_O2; format: in vivo, Klebsiella pneumoniae; conditions: C57/BL6 mice, 2e8 CFU; mAb 2 mg/kg 1 hour post infection; survival
# Procedure: as §1, §2
molecule,measurement,setting,value
B1,binding to LPS-O1,O1 LPS,bind
same,Kd,O2 LPS,7.98 nM
same,"protection from lethal bacterial challenge, Kp977778_O2",KPC strain Kp977778_O2,protected
same,Mouse protection models (O2),K. pneumoniae O2,+++
same,"protection from lethal bacterial challenge, Kp961842_O2",KPC strain Kp961842_O2,protected
